Experimental data taken from patent US20240301041A1.

Tests used:
[1] = molecular target: IgG binding protein (Protein A homolog SpsQ/SpsP) on S. intermedius 27369 (Staphylococcus intermedius); experiment: ELISA, coated S. intermedius 27369, antibody 1.47E-13 M
[2] = molecular target: IgG binding protein (Protein A homolog SpsQ/SpsP) on S. pseudintermedius AHDRCC 98200 (Staphylococcus pseudintermedius); experiment: ELISA, coated S. pseudintermedius 98200, antibody 9.42E-12 M
[3] = molecular target: IgG binding protein (Protein A homolog SpsQ/SpsP) on S. pseudintermedius AHDRCC 98200 (Staphylococcus pseudintermedius); experiment: ELISA, coated S. pseudintermedius 98200, antibody 3.86E-08 M
[4] = molecular target: IgG binding protein (Protein A homolog SpsQ/SpsP) on S. intermedius 27369 (Staphylococcus intermedius); experiment: ELISA, coated S. intermedius 27369, antibody 3.86E-08 M
[5] = molecular target: Protein A on the surface of S. aureus Newman wild-type (Staphylococcus aureus (strain Newman)) (UniProt P38507); experiment: ELISA, coated S. aureus Newman, antibody 4.82E-09 M
[6] = molecular target: IgG binding protein (Protein A homolog SpsQ/SpsP) on MRSP S. pseudintermedius 88493 (Staphylococcus pseudintermedius); experiment: ELISA, coated S. pseudintermedius 88493, antibody 1.18E-12 M
[7] = molecular target: IgG binding protein (Protein A homolog SpsQ/SpsP) on S. intermedius 27369 (Staphylococcus intermedius); experiment: ELISA, coated S. intermedius 27369, antibody 3.09E-07 M
[8] = molecular target: Protein A on the surface of S. aureus Newman wild-type (Staphylococcus aureus (strain Newman)) (UniProt P38507); experiment: ELISA, coated S. aureus Newman, antibody 7.54E-11 M
[9] = molecular target: IgG binding protein (Protein A homolog SpsQ/SpsP) on S. pseudintermedius AHDRCC 98200 (Staphylococcus pseudintermedius); experiment: ELISA, coated S. pseudintermedius 98200, antibody 1.47E-13 M
[10] = molecular target: IgG binding protein (Protein A homolog SpsQ/SpsP) on S. pseudintermedius AHDRCC 98200 (Staphylococcus pseudintermedius); experiment: ELISA, coated S. pseudintermedius 98200, antibody 4.82E-09 M
[11] = molecular target: IgG binding protein (Protein A homolog SpsQ/SpsP) on MRSP S. pseudintermedius 88493 (Staphylococcus pseudintermedius); experiment: ELISA, coated S. pseudintermedius 88493, antibody 7.54E-11 M
[12] = molecular target: IgG binding protein (Protein A homolog SpsQ/SpsP) on MRSP S. pseudintermedius 88493 (Staphylococcus pseudintermedius); experiment: ELISA, coated S. pseudintermedius 88493, antibody 1.47E-13 M
[13] = molecular target: Protein A on the surface of S. aureus Newman wild-type (Staphylococcus aureus (strain Newman)) (UniProt P38507); experiment: ELISA, coated S. aureus Newman, antibody 1.18E-12 M
[14] = molecular target: Protein A on the surface of S. aureus Newman wild-type (Staphylococcus aureus (strain Newman)) (UniProt P38507); experiment: ELISA, coated S. aureus Newman, antibody 3.86E-08 M
[15] = molecular target: Protein A on the surface of S. aureus Newman wild-type (Staphylococcus aureus (strain Newman)) (UniProt P38507); experiment: ELISA, coated S. aureus Newman, antibody 6.03E-10 M
[16] = molecular target: IgG binding protein (Protein A homolog SpsQ/SpsP) on MRSP S. pseudintermedius 88493 (Staphylococcus pseudintermedius); experiment: ELISA, coated S. pseudintermedius 88493, antibody 4.82E-09 M
[17] = molecular target: IgG binding protein (Protein A homolog SpsQ/SpsP) on S. intermedius 27369 (Staphylococcus intermedius); experiment: ELISA, coated S. intermedius 27369, antibody 6.03E-10 M
[18] = molecular target: Protein A on the surface of S. aureus Newman wild-type (Staphylococcus aureus (strain Newman)) (UniProt P38507); experiment: ELISA, coated S. aureus Newman, antibody 9.42E-12 M
[19] = molecular target: IgG binding protein (Protein A homolog SpsQ/SpsP) on S. pseudintermedius AHDRCC 98200 (Staphylococcus pseudintermedius); experiment: ELISA, coated S. pseudintermedius 98200, antibody 7.54E-11 M
[20] = molecular target: IgG binding protein (Protein A homolog SpsQ/SpsP) on MRSP S. pseudintermedius 88493 (Staphylococcus pseudintermedius); experiment: ELISA, coated S. pseudintermedius 88493, antibody 6.03E-10 M
[21] = molecular target: Protein A on the surface of S. aureus Newman wild-type (Staphylococcus aureus (strain Newman)) (UniProt P38507); experiment: ELISA, coated S. aureus Newman, antibody 1.47E-13 M
[22] = molecular target: IgG binding protein (Protein A homolog SpsQ/SpsP) on MRSP S. pseudintermedius 88493 (Staphylococcus pseudintermedius); experiment: ELISA, coated S. pseudintermedius 88493, antibody 3.86E-08 M
[23] = molecular target: IgG binding protein (Protein A homolog SpsQ/SpsP) on S. intermedius 27369 (Staphylococcus intermedius); experiment: ELISA, coated S. intermedius 27369, antibody 9.42E-12 M
[24] = molecular target: IgG binding protein (Protein A homolog SpsQ/SpsP) on MRSP S. pseudintermedius 88493 (Staphylococcus pseudintermedius); experiment: ELISA, coated S. pseudintermedius 88493, antibody 9.42E-12 M
[25] = molecular target: IgG binding protein (Protein A homolog SpsQ/SpsP) on S. pseudintermedius AHDRCC 98200 (Staphylococcus pseudintermedius); experiment: ELISA, coated S. pseudintermedius 98200, antibody 3.09E-07 M
[26] = molecular target: IgG binding protein (Protein A homolog SpsQ/SpsP) on S. intermedius 27369 (Staphylococcus intermedius); experiment: ELISA, coated S. intermedius 27369, antibody 4.82E-09 M
[27] = molecular target: IgG binding protein (Protein A homolog SpsQ/SpsP) on S. intermedius 27369 (Staphylococcus intermedius); experiment: ELISA, coated S. intermedius 27369, antibody 7.54E-11 M
[28] = molecular target: IgG binding protein (Protein A homolog SpsQ/SpsP) on S. pseudintermedius AHDRCC 98200 (Staphylococcus pseudintermedius); experiment: ELISA, coated S. pseudintermedius 98200, antibody 1.18E-12 M
[29] = molecular target: Protein A on the surface of S. aureus Newman wild-type (Staphylococcus aureus (strain Newman)) (UniProt P38507); experiment: ELISA, coated S. aureus Newman, antibody 3.09E-07 M
[30] = molecular target: IgG binding protein (Protein A homolog SpsQ/SpsP) on S. intermedius 27369 (Staphylococcus intermedius); experiment: ELISA, coated S. intermedius 27369, antibody 1.18E-12 M
[31] = molecular target: IgG binding protein (Protein A homolog SpsQ/SpsP) on MRSP S. pseudintermedius 88493 (Staphylococcus pseudintermedius); experiment: ELISA, coated S. pseudintermedius 88493, antibody 3.09E-07 M
[32] = molecular target: IgG binding protein (Protein A homolog SpsQ/SpsP) on S. pseudintermedius AHDRCC 98200 (Staphylococcus pseudintermedius); experiment: ELISA, coated S. pseudintermedius 98200, antibody 6.03E-10 M
[33] = molecular target: Protein A on the surface of S. aureus Newman wild-type (Staphylococcus aureus (strain Newman)) (UniProt P38507); experiment: cell-based or functional assay
[34] = molecular target: IgG binding protein (Protein A homolog SpsQ/SpsP) on S. intermedius 27369 (Staphylococcus intermedius); experiment: cell-based or functional assay
[35] = molecular target: IgG binding protein (Protein A homolog SpsQ/SpsP) on S. pseudintermedius AHDRCC 98200 (Staphylococcus pseudintermedius); experiment: cell-based or functional assay

Substance | ELISA luminescent signal [1] | ELISA luminescent signal [2] | ELISA luminescent signal [3] | ELISA luminescent signal [4] | ELISA luminescent signal [5] | ELISA luminescent signal [6] | ELISA luminescent signal [7] | ELISA luminescent signal [8] | ELISA luminescent signal [9] | ELISA luminescent signal [10] | ELISA luminescent signal [11] | ELISA luminescent signal [12] | ELISA luminescent signal [13] | ELISA luminescent signal [14] | ELISA luminescent signal [15] | ELISA luminescent signal [16] | ELISA luminescent signal [17] | ELISA luminescent signal [18] | ELISA luminescent signal [19] | ELISA luminescent signal [20] | further results
hIgG1 control (REGN1932) (antibody) | 25300 | 1460 | 36400 | 34800 | 652000 | 8920 | 123000 | 253000 | 1480 | 8040 | 7560 | 8190 | 30200 | 434000 | 509000 | 8950 | 5300 | 72500 | 2590 | 11000 | ELISA luminescent signal [21]: 18600; ELISA luminescent signal [22]: 14500; ELISA luminescent signal [23]: 1610; ELISA luminescent signal [24]: 7980; ELISA luminescent signal [25]: 132000; ELISA luminescent signal [26]: 42100; ELISA luminescent signal [27]: 2680; ELISA luminescent signal [28]: 2830; ELISA luminescent signal [29]: 506000; ELISA luminescent signal [30]: 9740; ELISA luminescent signal [31]: 43900; ELISA luminescent signal [32]: 4770
hIgG1*/* control (REGN4440) (antibody) | 896 | 1170 | 5100 | 3850 | 19400 | 6710 | 11100 | 24400 | 1120 | 2410 | 6370 | 12300 | 17100 | 27600 | 27500 | 7360 | 3010 | 16700 | 2240 | 7080 | median cfu/mL after 16 h in 50% normal human serum, mAb 270 ug/mL [33]: 7e+06 cfu/mL; median cfu/mL after 16 h in 50% normal human serum, mAb 270 ug/mL [34]: 8e+06 cfu/mL; median cfu/mL after 16 h in 50% normal human serum, mAb 270 ug/mL [35]: 7.5e+06 cfu/mL; ELISA luminescent signal [21]: 15500; ELISA luminescent signal [22]: 6470; ELISA luminescent signal [23]: 775; ELISA luminescent signal [24]: 6150; ELISA luminescent signal [25]: 15200; ELISA luminescent signal [26]: 2490; ELISA luminescent signal [27]: 2510; ELISA luminescent signal [28]: 2170; ELISA luminescent signal [29]: 38800; ELISA luminescent signal [30]: 2210; ELISA luminescent signal [31]: 14700; ELISA luminescent signal [32]: 2760
